Results reported in the DeepSol protein solubility set.

Test: soluble on expression in E. coli; label from the status in PepcDB or PDB records

Sequence | soluble on expression in E. coli
MGSSHHHHHHSSGLVPRGSTYKLTLIRHGESEWNKENRFTGWTDVSLSEQGVSEAIEAGRMLLEKGFKFDVVYTSVLKRAIMTTWTVLKELGNINCPIINHWRLNERHYGALQGLNKSETASKFGEDQVKIWRRSFDVPPPVLEKSDPRWPGNELIYKGICPSCLPTTECLKDTVERVKPYFEDVIAPSIMSGKSVLVSAHGNSLRALLYLLEGMTPEQILEVNIPTACPLVLELDDYLKVTKKYYLISEEELKAKMEAVANQGKAK | soluble
MSTQYLNSNLKVFSLNSNKELAEQIAKHIGVGLGKCSVDRFSDGEVQINIEESIRGCDVFIIQSTSFPVNEHIMELLIMIDALKRASAKTINIVIPYYGYARQDRKARSREPITSKLVANLLETAGATRVITLDLHAPQIQGFFDIPIDHLMGVPILSDYFETKGLKDIVIVSPDHGGVTRARKMADRLKAPIAIIDKRRPRPNVSEVMNIIGNIEGKTAILIDDIIDTAGTITLAANALVENGASEVYACCTHPVLSGPAIERIQNSNIKELVVTNSIVLPEEKKIDKVHELSVAPLIGEAIIRVYEEESVSVLFN | not soluble
MHMSQSTQRAYQEVLDWLEKELRKGSIAIGDKLPGERALAEQFELSRASVREAIRILTSMGLVRTGTGSGPHSGAIVISEPSAGLSWAIRMHLSARSLPLKDLVNTCILIESNAAADAATPKISPDSPERSHVLNEAHRLLDSMDDPTLPFHDYHIKDVNFHILITSLAGNLVTETIMESLRYSAIAFVIERLAMRTDWAEVSEKLQREHRNILRAIEERNPDKARTLVHDHIADFYELTSH | not soluble
MYKQIILACDGSEHALRAAEHATYIAKCSEETNVEVVYVVDNRTAKSDIIQGQTDLETISASRKDKLKEIEGLLKKENISYTITILHGDPGDTIVQYVNTGDIDLVIAGSRGLNTLQEMVLGSVSHKIAKRVKCPVMIVK | not soluble
MNSPLPDVALTEVSSALIALDWVGMQGVEVPLTLGEQGATHPVHAYADLQVDLTDPSVKGIHMSRLYRLLDGFAEHQVLTPETLSALLEAMVESHVDCHSSGARITLTFNLLCRRPALVTEGLSGWKSYPVKLEAVWRAGRLCLDVSADITYSSTCPCSAALSRQLLEEAFVARFGRQSFVDPMQVAAWLRENASYATPHSQRSVATVQVRVAEQATEMGLMALIDTVEQALGTPVQTAVKRADEQAFARLNGQNLMYVEDAARKIQQALEGRYPASSVSVRHFESLHPHDAAAQTSSYLS | not soluble
MINARGETMARFTVVIPYYQKQHGVLGRALASVFAQTYQDFDLVIVDDESPYPIDQELAEISQEQKDRIVVIKQANAGPGGARNTGLDHVPDGTDYVAFLDSDDMWTPDHLRNAAFALNTYGGECYWASMQASDEFYYHFAISELEKNEGAARLSEKPLVIELPDLASVMLRNWSFLHLSCMVIGRPLFEKIRFDPALRLAAEDVLFFCDSILASKRTLLCDDAGAMRGMGVNIFHSIDNTSPEFLRQQFNTWVALDTLEGRFSRRPADVASIASYKNTARKQALWSQAGNLKRRRAPQFGLLFKWAMRDPALLRAAFELGAGKIVRSRLEHHHHHH | not soluble
RVTDAEHPGVQLEFTNNKGELVSYEAISPWQKNAAGVNFHTFYGFGAVDLDEAMKRARMTNNVLPAQIITPWANNATEVSVPDASLAGGSSNIAITDDITVESVQVKLTLEHSRLPDLAIELVSPSGTRSVLQTPRNGLVGQSLDPNITGYENQLMLSNQFYGENAKGEWTLRAIDTNGDEVFSFIAYFNSSAIYDVPMANNAKPGVIKNWSMRIFGH | not soluble
GLCDGHMHIESGMLTPAEFAAAVIPHGTTTMFTDPHEIANVLGLAGVRMMHDEALMQPVNIFTQMPSCAPSAPGLETTGYEITPEDVAEAMTWPGIIGLGEMMNFPGVTNADPKMLAEIAATQRAGKTVGGHYASPDLGPAFAAYVAGGPADDHEGTCEADAIARVRQGMRSMMRLGSAWYDVETQITAVTEKGLDPRNFILCTDDCHSATLVNDGHMNRVVRHAIACGCDPLIALQMATINTATHFGLERELGSTAPGRRADVILTSDLRDLPIELVIARGQVVAENGKIAVDCPHYDWPD | not soluble
MSLRPTMTDIAKLTGVSQSTVSLVLNNATGAKFSETTRNKVLKAAHDLGYRLSLREPVSASADERNLIVYLADEISTSPHPVVNIDGARDAAYASGKMLAVYSTHGNADIEKQVLDTTLSNPHVFGVIYATVYTRKVTPPAALSQVPTVLLNCYTGEGGFSSVVPAEVAGGHLATDYLLQSGHRRIGYINGEPWQDASKDRLKGYRTALATADLPFAQEMVRDGDWSSGLGFELTLSLMRESNPPTAIFCANDLTAIGAIEALKQLGLRVPEDVSVLGYDDQEIARHTHPPLSTVVLPNYELGRWAVETLLQEEHNRAAGAPVRHRMVKLDGPLVERGSVRVITEAKEGHHHHHH | soluble
MNRTALVLGCLLVATPALAQSVTEKTGVNSVLGIAPTTPDFVKQVAISDMFEIQSNQLAERKGNAAQQAFAKQMIADHTKTSSELKAMVSDGKVKAELPTALDSAHQSKLDKLKNANGAEFSETFDEQQVSAHKDAVSLFERYAKGGDNDALKKWAGTTLPKLQHHLEMAQQLERDRTNTTSESKAKK | not soluble
MKTIGLIGGMSWESTTSYYQLINETIKKELGGLHSAKILLYSVDFAEIEHYQASDDWAKSAEVLSQIAQKLEQAGADFIVICTNTMHKVAPQIQKQIAIPILHIAQATAEAILENGIQKV | not soluble
MSLKKDIIILGIESSCDDTSAAVVRNETMLSNVIAGQAVHKAYGGVVPELASRAHQQNIVPVVSEAIKRAGIRKEEIDAIAFTRGPGLLGSLLVGTSFAKGLSLSLGIPMLEVNHLHAHVLANFLREPGEESQHPSFPFLCLLVSGGNSQIILVRSPYDMEVIGQTIDDAAGEAFDKCAKVMGLGYPGGPIVNKLASEGNPDAFRFARPHVSGYDYSFSGLKTSFLYTLRDKLAEDPDFIEKNKADLCASLQHTVIDILMKKLRQAAKDHSIKQVALAGGVSANTGLRDAFHDHARRYGWTVFIPKFAYTTDNAAMVAISGYYKYLQGDFCPIDAVPFSRITVEGHHHHHH | soluble
GMPPVWTLPRLYQHFQGAIDLELWTIPYYLTVLYSIKDPTTVPYRLIQAAVYQEMLHAQLVSNIANAYGYSPTLSAPEYVGTAVPHIDFDLDTPNPTSIFTPYSAELGPLDLTRVNTMCLIEYPEWRTQREPDLADDVTDYGSIGEFYDALRVGMEQLRGHVRGNQKQMDEFGPFYQNSPPLTVTESGDAGFLQALTLVDIIVDQGEGQTQPVETIPTEFQNTADGFQDAWPHFQRFDFIRRMPNWPGVYTGVTDPPAGSPGAEAQARLIADFAGFLDILNGMFSGGGAPPAFGVQMAKLGGDILSCWKLGAVPRYS | soluble
MSLAEIRIRPLEVSALSRRLCIWADIVDASGVLLNSAPVWFDVSAMGEVWTPSTDAEKGTAVDVHPLKREFIDVAAAGIEPASRREIEGKEFSRRVESGQPITKDVLRAIPEIKNGDIVFVEVRVGTVFLRSRAEAMHDAYIGDRIKLKSVSSGETMLGVVLSAGRVWIGSEGHHHHHH | not soluble
MSLEEDIQKQIIAAKEEAHDETIWGKPANDIITGIGNNSGVRPQRAIWEMVQNARDVSLNGKADIVFERQHDCFIFQHNGISFTNNTLEALILQTSSKVRNDSVQVGQYGTGFLTTHKLGLKFTLSSSVQLLENEQLFHHFSNFLIDRSSTDKKQMRDSLKKQIKITEEWARNPTIVSGPSSLTTFRYIQEHEVEKMNTKEAFKASSALAPYVIALNPCVNSISFVDNVEDCKELYIRKSTEIINTCDFYNVVKVTIDKCETESCDFTVLMLQSKETVEESGEPKVIVILPIKELESKSVAFALSKDVPNLFIYLPLLGTEQWGLNFIFHSPLFTCDKDSRDSLRFVGNGQNNDVDAERNKGIIQLADVIVSHYITENLSNIQDCMYLAKVAFNLHNSDEALANYYKSLQSSWVKKYESFPFVITKNGNIITRQAKVFDKELFDACLENKDLLTAVYNVTVQIYGTDYLPLETNMLFWSETLLQWYEAESFNPHLIHLSDIVEYIDKNNITTIGEENLWCIDNYIANSKQIGLFTKYKLLPTKNGELRVREDLLNPIIHDESLLKILDSLLPNDVASFIHTRFVLFEDVKIEEYDHNKVKESMRLLVSELSDLQKGHEIYRTNILAGLDVDSNKYEQNKLSDNHINALMGFYAYIVNIGGEAFQYKMIHLLADFYNIDLKSGEAYIKEIYDWRTVAPLLIKDALFRFTLMDSQKQAENAEWVRQMVIALYNYSDYRTYLDKYTVYPNEMDKYCYSKKISKSVNITNDLIALYDKIVNNENGENMCKSIKCVLLKNTYNDYFVENATIEGSSLAEKIMLEIKREGAYPDISANKWKQQILDIIAKQDKDVYWASIFGEIDSSKGAILLSVIQEKEKKDSILSLIRVSDTKKLKALAEVAEDDNLARIIELGKAALRDEMNSEADFEYKKKLGEYVEELIRKEIDSKLKAGSHIMEVLSQQDGQDIIILLDGTAIYYIEVKSRWSQKDSVLMSALQFRTSVEEKTHYALCEVDMITYNRENVDKHEFPDVEETINRISAIMNIGVLNETLKDTLNQDSDQVHVGGDYKVVVPQTVWEEHGKHFNELVEEIKKIVEEKEGHHHHHH | soluble
MAHHHHHHMGQAFMEDQGNSLVVWGSTGRRLQFSMQDLKMPASLRDTPHFHFYEKQWDAVASFWFNRVLKESALQHLSVEAIVELIRQDISKRWERRREEQSIYKKRKRLLQRSGPAGTPSASVLLTNVTTLDGYQAATEMEQRDLVTALVERVEDVANDKVESWQVLVDDASEQRPAKAARVEGTAATSGEHPENDADGASDFDDRVAVVLKLSSKEKAATTIAHLHGSRFDDRRVLCRFWSE | soluble
MKIVIIGGFLGGGKTTVLNHLLAESLKESLKPAVIMNEFGKMSVDGALVSEDIPLSELTEGCICCAMKADVSEQLHQLYLKEQPDIVFIECSGIAEPVSVLDACLTPILAPFTTITHMIGVIDASMYKHIKSFPKDIQGLFYEQLAYCSVLFVNKIDSADVETTSKLLKDLEVINPEADIQVGMHGSVTLPISVRQMTATSDNKHESLHKTINHQFVQSPVTCTKAEFIKRLACLPSHIYRLKGFMTFEDTTHTYLIQFTQGQYELTPVAFSKKVPEYLVLIGKGISKEDYQCLEQLEHHHHHH | not soluble
MSLEELVKKLGDKLNEAEADAKKFGKLIGRITRFESVSLKDNELIGVDIAFEDYLNSDVKKGQYLAIRSITRPVTILGQVRAITRADALSKLGIRELSYPKDPTTIITTTYVELKPIAEIENGKIRPPVSPVDPQSPVFIPNHDLIEKILNIPSRGITIGKIFSGGEETDASVRLDEYTLRHHTLILGTTGSGKTTLLKSMISSEEIDKGTFIFDRQGDFINYLIEKRRGFAVIMPVVEEASRSISLKDHAEKFANWYDCDNILDVKEDGVLEECNGSEVFLIPYSINFYSVLKNFNKITPYFTPKASMYWEAIVNNMFEIIGYDLYELADKKQTFYEDQLSDFLRDRLTPGSLLGKISGFYDLKMVSGSKSKQFSSYDGSKKMLTINMGKAFEEAMKRLDVPYQTKEAILRTLKAYDSYGIFTVPGTVDFKPKDVFSSYSDVVVDLSWVMNRSASIEAVATIAYKLLEDFFNWKDELYKMKETTKLTLVIMDEAHEYFPQTDQENVSKDIVEGLINRIMRLGRVRNIGVVLATHVPEDLNPLVLQLTNTKVVMRNESHVLRRLGLEEYEDFLRHATPGLAIVYSIYFSEVPIKTIQREGHHHHHH | soluble
MKKGINRVVLVGTGAVGCSYAYCMINQAVAEEFVLVDVNEAKAEGEAMDLSHAVPFAPAPTRVWKGSYEDCKDADLVVITAGLPQKPGETRLDLVEKNAKIFKQIVRSIMDSGFDGIFLIATNPVDILTYVTWKESGLPKERVIGSGTTLDSARFRYMLGEYFNIGPHNIHAYIIGEHGDTELPVWSHVSVGIQKLQTLLEKDNTYNQEDLDKIFINVRDAAYHIIERKGATYYGIGMSLLRVTKAILNDENSVLTVSAYLEGQYGQKDVYIGVPAVLNRGGVREILEVELSEDEELKFDHSVQVLKETMAPVL | not soluble
